Test results: publication PMC8177754

Substrate: Nc1nc2c(ncn2[C@@H]2O[C@@H]3COP(=O)(O)O[C@H]4[C@@H](O)[C@H](n5cnc6c(N)ncnc65)O[C@@H]4COP(=O)(O)O[C@H]3[C@H]2O)c(=O)[nH]1
Test: purified protein
Format: biochemical, Shewanella oneidensis
Details: pH 8.0

B1: (Shewanella oneidensis MR-1) (protein)
chain: MNAFLPHDFKVYMDVRHALLAVATALDFVGVDDLHHGHRVAYMAYECASVLGWPDEKKQFAYFAGLIHDCGVSSSEEHLRLLKLMQPEDAHCHSKRGYEALLECPILDVFAPIVLYHHTPWLELQSHDLSVFERDIAALIFLADRTDFLRARYTHGCHEELITLHESMVAENLLAHCGTLFEPEMVNAMCQLVKKDGFWYNMDATHIELLGLEFKANHFYDKELDIGGVKQLARFLARIVDAKSPFTFHHSEKVALLAKLVAKDCGISDTDAELLYVAGLLHDVGKLKTPDLLLHKEGKLTKEEYSIVKRHTVDTEHTLHRFFPKSVIGEWASNHHERLDGSGYPFSKRQEQLDLPSRILAVVDVFQALTQKRPYRGSLSLSEIYDIMQPMVDKGQLDAGVYSILLADIDNFYHLSTQEFQT
- Km: 119 ± 60 µM
